Reference: paper PMC5261137 (Proteins, 2016)

Target: T1, SipD^C244S (residues 39-343 C244S) (Salmonella, UniProt Q56026 39-343, C244S)
T1 sequence: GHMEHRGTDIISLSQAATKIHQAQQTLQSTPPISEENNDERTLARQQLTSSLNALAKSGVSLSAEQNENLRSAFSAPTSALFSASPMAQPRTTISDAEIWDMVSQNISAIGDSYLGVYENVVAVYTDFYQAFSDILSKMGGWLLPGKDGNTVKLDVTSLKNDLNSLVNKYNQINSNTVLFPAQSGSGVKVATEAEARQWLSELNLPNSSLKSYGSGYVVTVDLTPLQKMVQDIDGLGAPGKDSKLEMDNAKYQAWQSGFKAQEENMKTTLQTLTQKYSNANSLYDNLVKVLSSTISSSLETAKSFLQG
Test: NMR titration

B1: SipB^11-232 (domain or fragment)
chain: SGYTQNPRLAEAAFEGVRKNTDFLKAADKAFKDVVATKAGDLKAGTKSGESAINTVGLKPPTDAAREKLSSEGQLTLLLGKLMTLLGDVSLSQLESRLAVWQAMIESQKEMGIQVSKEFQTALGEAQEATDLYEASIKKTDTAKSVYDAATKKLTQAQNKLQSLDPADPGYAQAEAAVEQAGKEATEAKEALDKATDATVKAGTDAKAKAEKADNILTKFQG
binding result: binds
